# According to patent US20250011456A1, “ANTIBODIES AGAINST CD14 AND USES THEREOF” (Villanelle Life Science Inc, priority 2023, published 2025):
# Several values for one entry are separate records, joined by “and”; a condition that tells them apart may be missing. Identical values can stand only once.
# B1: D6DD3D001: mouse-derived anti-CD14 IgG1 antibody; VH SEQ ID NO: 1, VL SEQ ID NO: 3, heavy chain SEQ ID NO: 2, light chain SEQ ID NO: 4 (antibody)
# heavy: DVQLQQSGPGLVKPSQSLSLTCTVTGYSITSDSAWNWIRQFPGNRLEWMGYISYSGSTSYNPSLKSRISITRDTSKNQFFLQLNSVTTEDTATYYCVRGLRFAYWGQGTLVTVSSPSVFLFPPKPKDTLMISRTPEVTCVVVDVSHEDPEVKFNWYVDGVEVHNAKTKPREEQYNSTYRVVSVLTVLHQDWLNGKEYKCKVSNKALPAPIEKTISKAKGQPREPQVYTLPPSREEMTKNQVSLTCLVKGFYPSDIAVEWESNGQPENNYKTTPPVLDSDGSFFLYSKLTVDKSRWQQGNVFSCSVMHEALHNHYTQKSLSLSPGK
# light: DIVLTQSPASLAVSLGQRATISCRASESVDSYVNSFLHWYQQKPGQPPKLLIYRASNLQSGIPARFSGSGSRTDFTLTINPVEADDVATYYCQQSNEDPYTFGGGTKLEIKRTVAAPSVFIFPPSDEQLKSGTASVVCLLNNFYPREAKVQWKVDNALQSGNSQESVTEQDSKDSTYSLSSTLTLSKADYEKHKVYACEVTHQGLSSPVTKSFNRGEC
# Experiments:
# [1] = test system: CD14 positive recurrent bladder cancer patient-derived xenograft (PDX); assay: Anti-CD14 IgG1/IgG4 with or without cisplatin, tumor treatment in PDX mice (tumor length, width, volume, tumor weight; Example 6); format: in vivo; conditions: for Tumor Length / Tumor Width: IgG1 5 mg/kg i.v. (Ex. 1), PDX mice 1-6
# Source text: (§1) After removing the primary tumor tissue from the patient, the tissue was temporarily placed in a complete culture medium containing RPMI1640 (Gibco Roswell Park Memorial Institute 1640 Media)+PS (penicillin and streptomycin)+10% FBS (Fetal bovine serum). The tissue was then transported to a sterile operating room within an SPF-grade (Specific Pathogen Free) animal facility. The tumor tissue was cut to an appropriate size (5 millimeters (mm) in diameter). Severely immunodeficient NSG (NOD scid gamma mouse) mice were anesthetized using an isoflurane respirator. The tumor was transplanted subcutaneously into the right rib area through surgery. When the tumor volume reached 1 cm^3, it was passaged following the same procedure, and after expanding for three generations, the tumor became stable for use in formal experiments. During the experiment, passaging and expansion were performed as needed. When the tumor volume reached 100 mm^3, the mice were divided into groups according to the experimental requirements and treated with drugs.
# The IgG4 tested is the original version of Atibuclimab.
# Drug administration on the PDX mice was performed intravenously.
# [2] = test system: CD14 positive recurrent bladder cancer patient-derived xenograft (PDX); assay: Amount of anti-CD14-IgG1 (5-40 mg/kg) for tumor treatment in PDX mice (tumor length, width, volume, tumor weight; Example 7); format: in vivo; conditions: per mouse 1-5
# Source text: as §1
# To evaluate concentrations for the anti-CD14-IgG1 antibody, PDX mice were treated with five different concentrations of the IgG1 antibody over a period of 28 days. For these experiments, drug administration on the PDX mice was performed intravenously on alternating 4 days and 3 days.
# The five different concentrations of the anti-CD14-IgG1 antibody tested include 5 mg/kg, 10 mg/kg, 15 mg/kg, 25 mg/kg, and 40 mg/kg. A control regimen was utilized as a comparative example. […] The non-specific IgG1 has no binding affinity to antigen. […] Tumor weight and tumor volume were calculated as described above.
# [3] = Day 4, IgG1 (10 mg/kg), 10 mg/kg
# [4] = Day 11, IgG1 (5 mg/kg), 5 mg/kg
# [5] = Day 14, IgG1 (5 mg/kg), 5 mg/kg
# [6] = Day 18, IgG1 (5 mg/kg), 5 mg/kg
# [7] = Day 21, IgG1 (5 mg/kg), 5 mg/kg
# [8] = Day 25, IgG1 (5 mg/kg), 5 mg/kg
molecule,measurement,setting,value
B1,Tumor Length,"[1]; Day 0, 5 mg/kg",5.49 mm and 6.47 mm and 6.35 mm and 7.09 mm and 6.67 mm and 6.45 mm
same,Tumor Width,"[1]; Day 0, 5 mg/kg",4.68 mm and 5.9 mm and 5.17 mm and 4.77 mm and 5.25 mm and 5.24 mm
same,Tumor Length,"[1]; Day 4, 5 mg/kg",7.07 mm and 6.57 mm and 5.62 mm and 7.08 mm and 6.02 mm and 6.24 mm
same,Tumor Width,"[1]; Day 4, 5 mg/kg",5.98 mm and 5.95 mm and 5.01 mm and 5.53 mm and 5.58 mm and 6.18 mm
same,Tumor Length,"[1]; Day 7, 5 mg/kg",7.09 mm and 6.9 mm and 6.93 mm and 6.25 mm and 6.83 mm and 8.42 mm
same,Tumor Width,"[1]; Day 7, 5 mg/kg",5.61 mm and 6.26 mm and 6.41 mm and 5.39 mm and 6.72 mm and 6.39 mm
same,Tumor Length,"[1]; Day 11, 5 mg/kg",7.21 mm and 8.38 mm and 8.42 mm and 8.88 mm and 7.93 mm and 6.52 mm
same,Tumor Width,"[1]; Day 11, 5 mg/kg",5.85 mm and 6.91 mm and 7.5 mm and 7.03 mm and 6.5 mm and 5.39 mm
same,Tumor Length,"[1]; Day 14, 5 mg/kg",8.71 mm and 8.88 mm and 8.53 mm and 8.28 mm and 9.34 mm and 8.3 mm
same,Tumor Width,"[1]; Day 14, 5 mg/kg",7.05 mm and 6.51 mm and 7.95 mm and 7.99 mm and 8.34 mm and 8.05 mm
same,Tumor Length,"[1]; Day 18, 5 mg/kg",8.97 mm and 8.58 mm and 10.62 mm and 9.13 mm and 10.97 mm and 10.6 mm
same,Tumor Width,"[1]; Day 18, 5 mg/kg",8.41 mm and 8.21 mm and 9.09 mm and 8.09 mm and 8.03 mm and 8.83 mm
same,Tumor Length,"[1]; Day 21, 5 mg/kg",10.32 mm and 9.85 mm and 10.71 mm and 10.99 mm and 9.04 mm and 9.86 mm
same,Tumor Width,"[1]; Day 21, 5 mg/kg",9.94 mm and 9.85 mm and 8.59 mm and 8.23 mm and 8.97 mm and 9.35 mm
same,Tumor Length,"[1]; Day 25, 5 mg/kg",10.94 mm and 11.6 mm and 9.44 mm and 10.91 mm and 11.63 mm and 11.67 mm
same,Tumor Width,"[1]; Day 25, 5 mg/kg",10.71 mm and 8.34 mm and 9.23 mm and 9.83 mm and 10.03 mm and 9.39 mm
same,Tumor Length,"[1]; Day 28, 5 mg/kg",11.18 mm and 12.43 mm and 12.8 mm and 10.15 mm and 10.49 mm
same,Tumor Width,"[1]; Day 28, 5 mg/kg",9.72 mm and 10.02 mm and 9.93 mm and 10.84 mm and 9.98 mm and 9.95 mm
same,Tumor weight after 28 days,"[1]; IgG1 (5 mg/kg), Ex. 1, per mouse 1-6, 5 mg/kg",0.645 grams and 0.585 grams and 0.501 grams and 0.618 grams and 0.641 grams and 0.555 grams
same,tumor suppression rate,"[1]; single anti-CD14-IgG1 5 mg/kg (Ex. 1), after 28 days, compared to the control group",about 50%
same,Tumor Length,"[2]; Day 0, IgG1 (5 mg/kg), 5 mg/kg",4.41 mm and 4.54 mm and 4.71 mm and 5.12 mm and 4.93 mm
same,Tumor Volume,"[2]; Day 0, IgG1 (5 mg/kg), 5 mg/kg",20.01 mm^3 and 19.41 mm^3 and 19.14 mm^3 and 19.44 mm^3 and 19.33 mm^3
same,Tumor Volume,"[2]; Day 0, IgG1 (10 mg/kg), 10 mg/kg",59.69 mm^3 and 68.55 mm^3 and 77.15 mm^3 and 79.05 mm^3 and 79.08 mm^3
same,Tumor Length,"[2]; Day 4, IgG1 (5 mg/kg), 5 mg/kg",5.58 mm and 6.11 mm and 6.53 mm and 5.89 mm and 6.64 mm
same,Tumor Volume,"[2]; Day 4, IgG1 (5 mg/kg), 5 mg/kg",79.57 mm^3 and 87.80 mm^3 and 92.05 mm^3 and 94.26 mm^3 and 105.50 mm^3
same,Tumor Width,"[2]; Day 4, IgG1 (5 mg/kg), 5 mg/kg",5.22 mm and 5.24 mm and 5.19 mm and 5.53 mm and 5.51 mm
same,Tumor Length,[2]; [3],5.95 mm and 6.55 mm
same,Tumor Volume,[2]; [3],81.63 mm^3 and 82.98 mm^3 and 85.32 mm^3 and 88.96 mm^3 and 108.37 mm^3
same,Tumor Width,[2]; [3],5.12 mm
same,Tumor Volume,"[2]; Day 4, IgG1 (15 mg/kg), 15 mg/kg",76.19 mm^3 and 77.75 mm^3 and 81.95 mm^3 and 87.59 mm^3 and 90.56 mm^3
same,Tumor Length,"[2]; Day 7, IgG1 (5 mg/kg), 5 mg/kg",7.84 mm and 6.11 mm and 6.37 mm and 6.61 mm and 6.56 mm
same,Tumor Volume,"[2]; Day 7, IgG1 (5 mg/kg), 5 mg/kg",103.81 mm^3 and 104.99 mm^3 and 109.45 mm^3 and 121.23 mm^3 and 132.82 mm^3
same,Tumor Width,"[2]; Day 7, IgG1 (5 mg/kg), 5 mg/kg",5.03 mm and 5.73 mm (2×) and 5.92 mm and 6.22 mm
same,Tumor Volume,"[2]; Day 7, IgG1 (10 mg/kg), 10 mg/kg",112.99 mm^3 and 113.39 mm^3 and 121.55 mm^3 and 122.33 mm^3 and 133.44 mm^3
same,Tumor Volume,"[2]; Day 7, IgG1 (15 mg/kg), 15 mg/kg",99.31 mm^3 and 113.51 mm^3 and 118.44 mm^3 and 127.47 mm^3 and 152.88 mm^3
same,Tumor Length,[2]; [4],6.48 mm and 6.63 mm and 6.74 mm and 6.44 mm and 7.52 mm
same,Tumor Volume,[2]; [4],92.40 mm^3 and 103.06 mm^3 and 128.68 mm^3 and 130.81 mm^3 and 158.69 mm^3
same,Tumor Width,[2]; [4],5.22 mm and 5.45 mm and 6.04 mm and 6.23 mm and 6.35 mm
same,Tumor Volume,"[2]; Day 11, IgG1 (10 mg/kg), 10 mg/kg",100.68 mm^3 and 105.14 mm^3 and 112.60 mm^3 and 143.90 mm^3 and 170.28 mm^3
same,Tumor Length,[2]; [5],7.14 mm and 6.88 mm and 7.56 mm and 7.02 mm and 8.46 mm
same,Tumor Volume,[2]; [5],128.31 mm^3 and 135.30 mm^3 and 170.26 mm^3 and 171.88 mm^3 and 184.76 mm^3
same,Tumor Width,[2]; [5],5.86 mm and 6.13 mm and 6.56 mm and 6.84 mm and 6.46 mm
same,Tumor Volume,"[2]; Day 14, IgG1 (10 mg/kg), 10 mg/kg",109.71 mm^3 and 110.99 mm^3 and 134.85 mm^3 and 153.36 mm^3 and 165.63 mm^3
same,Tumor Length,[2]; [6],7.91 mm and 7.24 mm and 8.45 mm and 8.16 mm and 8.08 mm
same,Tumor Volume,[2]; [6],151.02 mm^3 and 169.58 mm^3 and 185.12 mm^3 and 218.31 mm^3 and 231.55 mm^3
same,Tumor Width,[2]; [6],6.04 mm and 6.69 mm and 6.47 mm and 7.15 mm and 7.4 mm
same,Tumor Volume,"[2]; Day 18, IgG1 (10 mg/kg), 10 mg/kg",132.18 mm^3 and 141.82 mm^3 and 163.82 mm^3 and 192.29 mm^3 and 204.50 mm^3
same,Tumor Length,[2]; [7],8.92 mm and 8.5 mm and 8.53 mm and 8.19 mm and 8.49 mm
same,Tumor Volume,[2]; [7],191.80 mm^3 and 234.46 mm^3 and 261.25 mm^3 and 271.57 mm^3 and 289.36 mm^3
same,Tumor Width,[2]; [7],6.41 mm and 7.26 mm and 7.65 mm and 7.96 mm and 8.07 mm
same,Tumor Volume,"[2]; Day 21, IgG1 (10 mg/kg), 10 mg/kg",218.53 mm^3 and 193.54 mm^3 and 221.69 mm^3 and 223.66 mm^3 and 268.23 mm^3
same,Tumor Length,[2]; [8],8.73 mm and 9.67 mm and 9.91 mm and 9.97 mm and 9.69 mm
same,Tumor Volume,[2]; [8],234.87 mm^3 and 334.49 mm^3 and 386.25 mm^3 and 465.95 mm^3 and 468.33 mm^3
same,Tumor Width,[2]; [8],7.17 mm and 8.13 mm and 8.63 mm and 9.45 mm and 9.61 mm
same,Tumor Volume,"[2]; Day 25, IgG1 (10 mg/kg), 10 mg/kg",227.79 mm^3 and 282.78 mm^3 and 300.56 mm^3 and 329.18 mm^3 and 336.90 mm^3
